Results reported in US10487147B2, “Anti-PD-L1 antibodies and uses thereof” (Merck Patent GmbH, priority 2011, dated 2019).

Assays:
[1] = Fluorescence monitored thermal unfolding assay of wild type and mutant PD-L1 proteins; format: physicochemical; conditions: temperature midpoint of fluorescently monitored thermal denaturation of the PD-L1 antigen protein
Description: As the temperature increases, thermal denaturation of the protein exposes the hydrophobic core residues and this can be monitored by an increase in fluorescence of the dye. […] The data ware fit to equation 1 (adapted from Bullock, A. N. et al. Thermodynamic stability of wild-type and mutant p53 core domain. PNAS 94, 14338-14342 (1997)) to determine the temperature at the inflection point of the curve (T1/2).

[2] = Analytical size exclusion chromatography of wild type and mutant PD-L1 proteins; format: physicochemical; conditions: qualitative appearance of the PD-L1 antigen protein on size exclusion chromatography
PANC02 cells = test: Combination with Gemcitabine in the PANC02 orthotopic model; conditions: GEM 150 mg/kg or A09-246-2 400 μg per mouse alone
[3] = test system: MC38 colon carcinoma cells; test: Combination with low dose cyclophosphamide in MC38 subcutaneous tumor model; format: in vivo, mice; conditions: CPA 100 mg/kg or A09-246-2 100 μg
Protocol: Low-dose CPA is known to enhance anti-tumor immune responses through the inhibition of immunosuppressive regulatory T cells. […] Mice were inoculated […] in the right flank with 1×10^6 MC38 colon carcinoma cells. When tumors reached a mean volume of ˜50 mm^3, mice were sorted into treatment groups (N=14) on day 0. […] Using an ELISPOT assay, the effects of treatment on the magnitude of CD8^+ T cell responses directed against the well-characterized p15E tumor antigen were measured.

Compound	T1/2 [1]	also measured
Y56K: PD-L1 point mutant antigen expressed in HEK cells [Antibody Y56K]	55.4 +/− 1.3 °C	
Y56A: PD-L1 point mutant antigen expressed in HEK cells [Antibody Y56A]	57.5 +/− 0.7 °C	
D73A: PD-L1 point mutant antigen expressed in HEK cells [Antibody D73A]	53.5 +/− 2.1 °C	
K124A: PD-L1 point mutant antigen expressed in HEK cells [Antibody K124A]	53.1 +/− 0.6 °C	
S79E: PD-L1 point mutant antigen expressed in HEK cells [Antibody S79E]	60.0 °C	
Q107A: PD-L1 point mutant antigen expressed in HEK cells [Antibody Q107A]	58.6 +/− 2.0 °C	SEC [2]: M/T
S79A: PD-L1 point mutant antigen expressed in HEK cells [Antibody S79A]	56.3 +/− 0.9 °C	
E71A: PD-L1 point mutant antigen expressed in HEK cells [Antibody E71A]	52.8 +/− 1.5 °C	
V111E: PD-L1 point mutant antigen expressed in HEK cells [Antibody V111E]	51.6 +/− 0.0 °C	
S80E: PD-L1 point mutant antigen expressed in HEK cells [Antibody S80E]	56.8 +/− 4.5 °C	
V76A: PD-L1 point mutant antigen expressed in HEK cells [Antibody V76A]	55.7 °C	
A121R: PD-L1 point mutant antigen expressed in HEK cells [Antibody A121R]	54.0 +/− 0.5 °C	
K129A: PD-L1 point mutant antigen expressed in HEK cells [Antibody K129A]	50.8 +/− 1.2 °C	
K105A: PD-L1 point mutant antigen expressed in HEK cells [Antibody K105A]	57.0 +/− 1.5 °C	
H78A: PD-L1 point mutant antigen expressed in HEK cells [Antibody H78A]	56.6 +/− 0.6 °C	
R113A: PD-L1 point mutant antigen expressed in HEK cells [Antibody R113A]	56.7 °C	
E60A: PD-L1 point mutant antigen expressed in HEK cells [Antibody E60A]	50.4 °C	
E58A: PD-L1 point mutant antigen expressed in HEK cells [Antibody E58A]	54.6 +/− 0.6 °C	
Nc1ccn([C@@H]2O[C@H](CO)[C@@H](O)C2(F)F)c(=O)n1 [GEM, Gemcitabine]		survival time, monotherapy (PANC02 cells): failed to extend survival time
S117A: PD-L1 point mutant antigen expressed in HEK cells [Antibody S117A]	52.7 +/− 0.3 °C	
A51Q: PD-L1 point mutant antigen expressed in HEK cells [Antibody A51Q]	57.3 +/− 0.6 °C	

Compound	T1/2 [1]	also measured
E45A: PD-L1 point mutant antigen expressed in HEK cells [Antibody E45A]	58.0 °C	
A52R: PD-L1 point mutant antigen expressed in HEK cells [Antibody A52R]	55.2 °C	
R82A: PD-L1 point mutant antigen expressed in HEK cells [Antibody R82A]	51.2 +/− 0.4 °C	
S80A: PD-L1 point mutant antigen expressed in HEK cells [Antibody S80A]	57.0 °C	
T127A: PD-L1 point mutant antigen expressed in HEK cells [Antibody T127A]	51.4 +/− 0.0 °C	
I54K: PD-L1 point mutant antigen expressed in HEK cells [Antibody I54K]	57.2 °C	
K46A: PD-L1 point mutant antigen expressed in HEK cells [Antibody K46A]	51.6 °C	
D49A: PD-L1 point mutant antigen expressed in HEK cells [Antibody D49A]	BP (>49) ° C.	
I54A: PD-L1 point mutant antigen expressed in HEK cells [Antibody I54A]	57.2 +/− 2.5 °C	
T127K: PD-L1 point mutant antigen expressed in HEK cells [Antibody T127K]	54.0 °C	
K75A: PD-L1 point mutant antigen expressed in HEK cells [Antibody K75A]	57.7 +/− 1.8 °C	
L27A: PD-L1 point mutant antigen expressed in HEK cells [Antibody L27A]	51.7 +/− 0.5 °C	
A109E: PD-L1 point mutant antigen expressed in HEK cells [Antibody A109E]	54.0 °C	
T20A: PD-L1 point mutant antigen expressed in HEK cells [Antibody T20A]	52.5 +/− 0.2 °C	
D61A: PD-L1 point mutant antigen expressed in HEK cells [Antibody D61A]	52.0 °C	
O=P1(N(CCCl)CCCl)NCCCO1 (centres unmarked) [CPA, cyclophosphamide]		p15E-reactive CD8+ T cells (ELISPOT), single agent [3]: ~100 spots
R125A: PD-L1 point mutant antigen expressed in HEK cells [Antibody R125A]	51.8 +/− 0.2 °C	
V68R: PD-L1 point mutant antigen expressed in HEK cells [Antibody V68R]	56.0 °C	SEC [2]: M/T
V111A: PD-L1 point mutant antigen expressed in HEK cells [Antibody V111A]	50.2 +/− 0.2 °C	
M115A: PD-L1 point mutant antigen expressed in HEK cells [Antibody M115A]	51.4 +/− 0.1 °C	
D26A: PD-L1 point mutant antigen expressed in HEK cells [Antibody D26A]	52.8 +/− 0.2 °C	
